We go through two substances from publication PMC6156153.

This assay deals with recombinant staphylococcal protein A (SpA) (Staphylococcus aureus) (UniProt P02976).
UniProt P02976, sequence (P02976 37-485): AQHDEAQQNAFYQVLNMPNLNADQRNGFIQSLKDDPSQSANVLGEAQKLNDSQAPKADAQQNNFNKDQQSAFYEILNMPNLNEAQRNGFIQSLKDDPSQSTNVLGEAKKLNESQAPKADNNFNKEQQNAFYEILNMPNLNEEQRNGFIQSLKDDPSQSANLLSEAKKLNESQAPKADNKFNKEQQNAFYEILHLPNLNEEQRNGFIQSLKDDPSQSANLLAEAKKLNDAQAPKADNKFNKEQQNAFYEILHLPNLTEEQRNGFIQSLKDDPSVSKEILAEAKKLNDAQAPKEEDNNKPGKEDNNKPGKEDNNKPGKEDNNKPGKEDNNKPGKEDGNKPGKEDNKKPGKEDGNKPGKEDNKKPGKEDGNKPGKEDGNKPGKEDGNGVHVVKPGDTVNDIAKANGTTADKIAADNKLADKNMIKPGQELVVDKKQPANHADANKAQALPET

For the substance “recombinant murine VHI isotype control IgG3 (antibody genes of the anti-hen egg lysozyme D1.3 mAb)”, the in vivo depletion of adoptively transferred VHIII (T15i) B cells at 72 h after SpA challenge in muMT mice pretreated with 1 mg of the IgG (told of the IgG3 mAbs together) came out at 60 % depletion.

Consider “recombinant murine VHIII IgG3 (variable regions of the anti-PC TEPC15 clone) (antibody)”, for which the in vivo depletion of adoptively transferred VHIII (T15i) B cells at 72 h after SpA challenge in muMT mice pretreated with 1 mg of the IgG (told of the IgG3 mAbs together) amounted to 60 % depletion.
